T1: MBNL1 (isoform encoded by exons 1-4) (UniProt Q9NR56 1-269)
T1 sequence: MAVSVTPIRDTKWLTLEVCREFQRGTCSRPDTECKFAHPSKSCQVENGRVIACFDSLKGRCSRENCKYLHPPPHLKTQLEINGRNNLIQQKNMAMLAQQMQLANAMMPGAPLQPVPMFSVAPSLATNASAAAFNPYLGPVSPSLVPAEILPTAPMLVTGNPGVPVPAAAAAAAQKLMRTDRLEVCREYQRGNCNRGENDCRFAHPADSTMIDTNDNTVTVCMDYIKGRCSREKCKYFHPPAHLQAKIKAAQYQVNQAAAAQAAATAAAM


Target: T1, MBNL1 (isoform encoded by exons 1-4)
Assay: filter binding; 0-500 nM MBNL1; 0.5 nM oligomer; FBA: FBB (50 mM Tris-HCl pH 8.0, 1 mM MgCl2, 0.05% Tween 20) with 250 mM NaCl and 15 mM KCl, 37 C, 30 min, 30 ul
Settings: protein: recombinant; tags: N-terminal GST; C-terminal His6; label: radiolabeled; single strand

Binder	binding result
CAGCAGCA (XNA, all LNA, phosphodiester) [PO-LNA-CAG-8]	no binding
CAGCAGCAGC (XNA, all LNA, phosphodiester) [PO-LNA-CAG-10]	no binding
